Consider 1 molecule from patent publication US20240052061A1 (PURINOMIA BIOTECH, published 2024).

One may read the Kd as the equilibrium constant for the complex coming apart.

Assay [1] concerns the target T1, human ecto-nucleoside triphosphate diphosphohydrolase-3 (NTPDase3) (human, UniProt O75355 1-529).
T1 sequence (looked up): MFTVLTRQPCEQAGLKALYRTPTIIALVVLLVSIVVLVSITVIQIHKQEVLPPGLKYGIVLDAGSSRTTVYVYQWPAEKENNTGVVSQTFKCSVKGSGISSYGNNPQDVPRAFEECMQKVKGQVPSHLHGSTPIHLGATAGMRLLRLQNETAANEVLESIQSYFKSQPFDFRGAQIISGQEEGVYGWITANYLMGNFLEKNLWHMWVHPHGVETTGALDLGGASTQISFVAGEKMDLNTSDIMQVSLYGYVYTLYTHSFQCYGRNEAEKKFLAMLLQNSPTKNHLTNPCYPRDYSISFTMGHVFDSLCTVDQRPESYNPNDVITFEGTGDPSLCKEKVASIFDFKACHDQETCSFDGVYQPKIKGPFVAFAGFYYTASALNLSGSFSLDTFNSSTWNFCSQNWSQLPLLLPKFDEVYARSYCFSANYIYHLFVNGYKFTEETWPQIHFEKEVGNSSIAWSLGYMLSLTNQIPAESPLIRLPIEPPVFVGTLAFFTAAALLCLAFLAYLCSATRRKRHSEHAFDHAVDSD
Briefly: cell-based or functional assay.

In assay [2] the target is T1, human ecto-nucleoside triphosphate …. Briefly: cell-based or functional assay. The source holds these as a separate data set.
Assay [3] shares this target. Briefly: flow cytometry on HEK293T-hENTPD3 cells, 30 minutes at 4 °C (FIG. 3). The text has this: FIG. 3. Affinity of PBI #30 measured by flow cytometry using hENTPD3 positive HEK293T cells (stably transfected cells).
On the technique in general: Flow cytometry measures light scatter and fluorescence of single cells or particles in a stream.

Assay [4] shares this target. Briefly: flow cytometry on CHO-hENTPD3 cells, 30 minutes at 4 °C (FIG. 1). As for the experimental part: FIG. 1. Affinity of PBI #30 measured by flow cytometry using human ENTPD3 (hENTPD3) positive CHO cells (stably transfected cells). PBI #30 was serially diluted as indicated (top dose 333 nM) and incubated with CHO-hENTPD3 cells for 30 minutes at 4° C., followed by secondary antibody staining (anti-human IgG (Fc specific), Alexa Fluor® 488) for 30 minutes at 4° C. and flow cytometry analysis.

Assay [5] shares this target. Briefly: flow cytometry on RT4 bladder cancer cells (endogenous hENTPD3), 30 minutes at 4 °C (FIG. 4). The text has this: FIG. 4. Affinity of PBI #30 measured by flow cytometry using RT4 bladder cancer cells that endogenously express hENTPD3.
Assay [6] has the same target. Briefly: flow cytometry on COS7-hENTPD3 cells, 30 minutes at 4 °C (FIG. 2). An excerpt:
FIG. 2. Affinity of PBI #30 measured by flow cytometry using hENTPD3 positive COS-7 cells (stably transfected cells).

The target is the same in assay [7]. Briefly: flow cytometry on CHO-hENTPD3 cells, 2 hours at 37 °C (FIG. 19). The text has this:
(§1) FIG. 19. Affinity of the fully human anti-hENTPD3 monoclonal antibody PBI #30 hIgG1 measured by flow cytometry using CHO-hENTPD3 and COS7-hENTPD3 cells. Generally, FIG. 19 and following are directed to analyses of anti-hENTPD3 monoclonal antibody clones that have been further optimized exemplary (e.g., affinity maturation and isotype switching for PBI #30 and humanization of 8E1 and 38D5) and related detection methods.

The target is the same in assay [8]. Briefly: flow cytometry on COS7-hENTPD3 cells, 2 hours at 37 °C (FIG. 19).
Description: as §1

B1: PBI #30 hIgG1 (antibody, V domains shown)
VH: QVQLQESGGGLIQPGGSLRLSCAASGFTSSSSDYAMSWVRQAPGKGLEWVSSISGSGGSTYYADSVKGRFTISRDNSKNTLYVQMTSLTAEDTAVYYCAKVVGYSMYDYYYHYALDVWGQGTTVTVSS
VL: QPVLTQPPSASGTPGQRVTISCSGSSSNIGSNTVNWYQQLPGTAPKLLIYSNNQRPSGVPDRFSGSKSGTSASLTISGLKTEDEAGYYCQSYDTSNVVFGGGTKVTVLG
notes: Fully human IgG1; also called clone PBI #30; original clone PBI #30 hIgG1
As to B1, the “ADCC EC50 (µg/mL), NFAT luciferase reporter Jurkat/hCD16a-158V” value in assay [1] is 1.44 µg/mL. For the same molecule, in assay [1], the “Enzyme Activity Inhibition Capacity: % of Maximal Inhibition” value stood at 76%. Also, in assay [1], the “Enzyme Activity Inhibition Capacity: EC50” value worked out at 2.51 µg/mL. In addition, the “ADCC EC50, NFAT luciferase reporter Jurkat/hCD16a-158V” value in assay [2] amounted to 0.092 µg/mL. The “EC50 of hENTPD3 enzyme activity inhibition, CHO-hENTPD3 cells, antibody 30 minutes” value in assay [2] stood at 17.3 µg/mL. Also, the Kd in assay [3] was found to be 8.4 nM; in assay [4], 5.53 nM; in assay [5] it was 10.1 nM; in assay [6] it was 11.9 nM; in assay [7], 2.96 nM; in assay [8], 1.82 nM.
